Laboratory results as given in paper PMC9481563 (2022).
Where no end group is shown, it is not given here. [ ]: non-standard residue; d: D form. pY = N[C@@H](Cc1ccc(OP(=O)(O)O)cc1)C(=O)O; pT = C[C@@H](OP(=O)(O)O)[C@H](N)C(=O)O; pS = N[C@@H](COP(=O)(O)O)C(=O)O

B1: p0IRS1, IRS1 peptide with phosphotyrosine only (pY632) (peptide)
peptide: GRKGSGD[pY]MPMSPKS
B2: ppIRS1, IRS1 peptide dually phosphorylated (pY632 + pS636) (peptide)
peptide: GRKGSGD[pY]MPM[pS]PKS
B3: CF-ppIRS1, carboxyfluorescein-labelled pY632 + pS636 IRS1 peptide (peptide)
chain: GRKGSGDYMPMSPKS
modifications: phosphotyrosine at Y632; phosphoserine at S636; C-terminal lysine-ε-carboxyfluorescein label
B4: p0CD28, CD28 peptide with phosphotyrosine only (pY191) (peptide)
peptide: RSRLLHSD[pY]MNMTPRR
B5: ppCD28, CD28 peptide dually phosphorylated (pY191 + pT195) (peptide)
peptide: RSRLLHSD[pY]MNM[pT]PRR

target: T1, PIK3R1 (p85) C-terminal SH2 domain (614-724) (human, UniProt P27986 614-724); assay: FP
T1 sequence (P27986 614-724): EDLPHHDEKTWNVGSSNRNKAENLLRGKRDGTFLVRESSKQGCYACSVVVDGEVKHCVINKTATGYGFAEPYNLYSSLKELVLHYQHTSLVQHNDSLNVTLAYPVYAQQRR

For B1, which Kd is on record?
Its Kd is 8.1 nM.

Which Kd does the source give for B2 here?
The Kd was 5.1 nM.

With B3 as the binder, how does the Kd read?
The Kd was 10.6 nM.

target: T2, PIK3R1 (p85) N-terminal SH2 domain (321-433) (human, UniProt P27986 321-433); assay: FP
T2 sequence (P27986 321-433): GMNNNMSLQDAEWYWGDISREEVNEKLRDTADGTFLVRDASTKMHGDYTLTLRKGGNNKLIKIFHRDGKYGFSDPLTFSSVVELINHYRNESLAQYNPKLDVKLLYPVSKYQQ

B1 was tested. Which Kd did it give?
Its Kd is 184 nM.

With B2 as the binder, how does the Kd read?
Its Kd is 306 nM.

With B3 as the binder, how does the Kd read?
The Kd was 412 nM.

target: T1, PIK3R1 (p85) C-terminal SH2 domain …; assay: FP; remark: another data set of the same source

How did the Kd turn out when B4 was run?
The Kd was 11 nM.

Which Kd does the source give for B5 here?
Its Kd is 22.9 nM.

With B3 as the binder, how does the Kd read?
The Kd was 5.7 nM.

target: T2, PIK3R1 (p85) N-terminal SH2 domain …; assay: FP; remark: another data set of the same source

With B4 as the binder, how does the Kd read?
Its Kd is 104 nM.

Which Kd does the source give for B5 here?
The Kd was 285 nM.

Which Kd does the source give for B3 here?
The Kd was 383 nM.
